This note sets out measurements from patent US20140087995A1 (published 2014).

For orientation: IC50 means the point on the concentration scale where inhibition reaches its midpoint. Low values mean greater potency, high ones weaker potency.

Numbered stars: 1 amine (or outer) side, 2 acyl side, 3 side chain; on linkers, the order of the positions; unused ones are H or OH. Bridge positions count the residues as written; N and C are the ends. * marks the point of attachment. C20 diacid = O=C(O)CCCCCCCCCCCCCCCCCCC(=O)*; γGlu = O=C(O)[C@H](CCC(=O)[*:2])N[*:1]

The chains are these.
T1: human amylin receptor (human, UniProt P30988 25-474; O60896 24-148, limits assumed)
T1 construct: whole, on cells; Calcitonin receptor plus RAMP-3 gives the amylin 3(a) receptor; membranes of Amylin 3(a)/CRE-luc cells were used; also called hAmylin-R; hAmylinR
T1 sequence (looked up) 1: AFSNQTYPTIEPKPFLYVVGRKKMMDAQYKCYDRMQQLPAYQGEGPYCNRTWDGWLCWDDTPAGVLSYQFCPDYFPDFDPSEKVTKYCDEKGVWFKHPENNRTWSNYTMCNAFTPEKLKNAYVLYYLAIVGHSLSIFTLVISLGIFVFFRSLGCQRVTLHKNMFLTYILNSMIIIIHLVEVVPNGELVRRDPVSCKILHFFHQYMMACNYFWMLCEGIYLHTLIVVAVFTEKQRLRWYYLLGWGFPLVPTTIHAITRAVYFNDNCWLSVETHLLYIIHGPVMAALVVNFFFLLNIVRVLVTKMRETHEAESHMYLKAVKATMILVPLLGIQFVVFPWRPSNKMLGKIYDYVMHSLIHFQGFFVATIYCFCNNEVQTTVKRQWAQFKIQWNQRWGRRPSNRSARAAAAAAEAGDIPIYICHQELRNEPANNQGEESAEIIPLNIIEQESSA
T1 sequence (looked up) 2: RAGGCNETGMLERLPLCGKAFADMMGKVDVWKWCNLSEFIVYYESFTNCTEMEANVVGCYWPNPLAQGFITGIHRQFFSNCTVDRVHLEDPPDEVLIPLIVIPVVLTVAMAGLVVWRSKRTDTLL

B1: N^α1-[(4S)-4-carboxy-4-(19-carboxynonadecanoylamino)butanoyl]-[Asp14,Arg17,Pro21,Pro27,Pro37]-h-amylin (peptide)
peptide: {C20 diacid-γGlu}-KCNTATCATQRLADFLRHSSPNFGAIPSSTNVGSNTP-NH2
modifications: disulfide 2-7
SMILES: CC[C@H](C)[C@H](NC(=O)[C@H](C)NC(=O)CNC(=O)[C@H](Cc1ccccc1)NC(=O)[C@H](CC(N)=O)NC(=O)[C@@H]1CCCN1C(=O)[C@H](CO)NC(=O)[C@H](CO)NC(=O)[C@H](Cc1c[nH]cn1)NC(=O)[C@H](CCCNC(=N)N)NC(=O)[C@H](CC(C)C)NC(=O)[C@H](Cc1ccccc1)NC(=O)[C@H](CC(=O)O)NC(=O)[C@H](C)NC(=O)[C@H](CC(C)C)NC(=O)[C@H](CCCNC(=N)N)NC(=O)[C@H](CCC(N)=O)NC(=O)[C@@H](NC(=O)[C@H](C)NC(=O)[C@@H]1CSSC[C@H](NC(=O)[C@H](CCCCN)NC(=O)CC[C@H](NC(=O)CCCCCCCCCCCCCCCCCCC(=O)O)C(=O)O)C(=O)N[C@@H](CC(N)=O)C(=O)N[C@@H]([C@@H](C)O)C(=O)N[C@@H](C)C(=O)N[C@@H]([C@@H](C)O)C(=O)N1)[C@@H](C)O)C(=O)N1CCC[C@H]1C(=O)N[C@@H](CO)C(=O)N[C@@H](CO)C(=O)N[C@H](C(=O)N[C@@H](CC(N)=O)C(=O)N[C@H](C(=O)NCC(=O)N[C@@H](CO)C(=O)N[C@@H](CC(N)=O)C(=O)N[C@H](C(=O)N1CCC[C@H]1C(N)=O)[C@@H](C)O)C(C)C)[C@@H](C)O
notes: also called 14D, 17R, 21P, 27P, 37P
B2: N^α1-[(4S)-4-carboxy-4-(19-carboxynonadecanoylamino)butanoyl]-[Glu14,Arg17,Pro21,Pro27,His35]-h-amylin (peptide)
peptide: {C20 diacid-γGlu}-KCNTATCATQRLAEFLRHSSPNFGAIPSSTNVGSHTY-NH2
modifications: disulfide 2-7
SMILES: CC[C@H](C)[C@H](NC(=O)[C@H](C)NC(=O)CNC(=O)[C@H](Cc1ccccc1)NC(=O)[C@H](CC(N)=O)NC(=O)[C@@H]1CCCN1C(=O)[C@H](CO)NC(=O)[C@H](CO)NC(=O)[C@H](Cc1c[nH]cn1)NC(=O)[C@H](CCCNC(=N)N)NC(=O)[C@H](CC(C)C)NC(=O)[C@H](Cc1ccccc1)NC(=O)[C@H](CCC(=O)O)NC(=O)[C@H](C)NC(=O)[C@H](CC(C)C)NC(=O)[C@H](CCCNC(=N)N)NC(=O)[C@H](CCC(N)=O)NC(=O)[C@@H](NC(=O)[C@H](C)NC(=O)[C@@H]1CSSC[C@H](NC(=O)[C@H](CCCCN)NC(=O)CC[C@H](NC(=O)CCCCCCCCCCCCCCCCCCC(=O)O)C(=O)O)C(=O)N[C@@H](CC(N)=O)C(=O)N[C@@H]([C@@H](C)O)C(=O)N[C@@H](C)C(=O)N[C@@H]([C@@H](C)O)C(=O)N1)[C@@H](C)O)C(=O)N1CCC[C@H]1C(=O)N[C@@H](CO)C(=O)N[C@@H](CO)C(=O)N[C@H](C(=O)N[C@@H](CC(N)=O)C(=O)N[C@H](C(=O)NCC(=O)N[C@@H](CO)C(=O)N[C@@H](Cc1c[nH]cn1)C(=O)N[C@H](C(=O)N[C@@H](Cc1ccc(O)cc1)C(N)=O)[C@@H](C)O)C(C)C)[C@@H](C)O
notes: also called 14E, 17R, 21P, 27P, 35H
B3: N^α1-[(4S)-4-carboxy-4-(19-carboxynonadecanoylamino)butanoyl]-[Glu14,Arg17,Pro21,Pro27,Asp35,Pro37]-h-amylin (peptide)
peptide: {C20 diacid-γGlu}-KCNTATCATQRLAEFLRHSSPNFGAIPSSTNVGSDTP-NH2
modifications: disulfide 2-7
SMILES: CC[C@H](C)[C@H](NC(=O)[C@H](C)NC(=O)CNC(=O)[C@H](Cc1ccccc1)NC(=O)[C@H](CC(N)=O)NC(=O)[C@@H]1CCCN1C(=O)[C@H](CO)NC(=O)[C@H](CO)NC(=O)[C@H](Cc1c[nH]cn1)NC(=O)[C@H](CCCNC(=N)N)NC(=O)[C@H](CC(C)C)NC(=O)[C@H](Cc1ccccc1)NC(=O)[C@H](CCC(=O)O)NC(=O)[C@H](C)NC(=O)[C@H](CC(C)C)NC(=O)[C@H](CCCNC(=N)N)NC(=O)[C@H](CCC(N)=O)NC(=O)[C@@H](NC(=O)[C@H](C)NC(=O)[C@@H]1CSSC[C@H](NC(=O)[C@H](CCCCN)NC(=O)CC[C@H](NC(=O)CCCCCCCCCCCCCCCCCCC(=O)O)C(=O)O)C(=O)N[C@@H](CC(N)=O)C(=O)N[C@@H]([C@@H](C)O)C(=O)N[C@@H](C)C(=O)N[C@@H]([C@@H](C)O)C(=O)N1)[C@@H](C)O)C(=O)N1CCC[C@H]1C(=O)N[C@@H](CO)C(=O)N[C@@H](CO)C(=O)N[C@H](C(=O)N[C@@H](CC(N)=O)C(=O)N[C@H](C(=O)NCC(=O)N[C@@H](CO)C(=O)N[C@@H](CC(=O)O)C(=O)N[C@H](C(=O)N1CCC[C@H]1C(N)=O)[C@@H](C)O)C(C)C)[C@@H](C)O
notes: also called 14E, 17R, 21P, 27P, 35D, 37P
B4: N^α1-[(4S)-4-carboxy-4-(19-carboxynonadecanoylamino)butanoyl]-[Glu14,Arg17,Pro21,Pro26]-h-amylin (peptide)
peptide: {C20 diacid-γGlu}-KCNTATCATQRLAEFLRHSSPNFGAPLSSTNVGSNTY-NH2
modifications: disulfide 2-7
SMILES: CC(C)C[C@H](NC(=O)[C@H](CCCNC(=N)N)NC(=O)[C@H](CCC(N)=O)NC(=O)[C@@H](NC(=O)[C@H](C)NC(=O)[C@@H]1CSSC[C@H](NC(=O)[C@H](CCCCN)NC(=O)CC[C@H](NC(=O)CCCCCCCCCCCCCCCCCCC(=O)O)C(=O)O)C(=O)N[C@@H](CC(N)=O)C(=O)N[C@@H]([C@@H](C)O)C(=O)N[C@@H](C)C(=O)N[C@@H]([C@@H](C)O)C(=O)N1)[C@@H](C)O)C(=O)N[C@@H](C)C(=O)N[C@@H](CCC(=O)O)C(=O)N[C@@H](Cc1ccccc1)C(=O)N[C@@H](CC(C)C)C(=O)N[C@@H](CCCNC(=N)N)C(=O)N[C@@H](Cc1c[nH]cn1)C(=O)N[C@@H](CO)C(=O)N[C@@H](CO)C(=O)N1CCC[C@H]1C(=O)N[C@@H](CC(N)=O)C(=O)N[C@@H](Cc1ccccc1)C(=O)NCC(=O)N[C@@H](C)C(=O)N1CCC[C@H]1C(=O)N[C@@H](CC(C)C)C(=O)N[C@@H](CO)C(=O)N[C@@H](CO)C(=O)N[C@H](C(=O)N[C@@H](CC(N)=O)C(=O)N[C@H](C(=O)NCC(=O)N[C@@H](CO)C(=O)N[C@@H](CC(N)=O)C(=O)N[C@H](C(=O)N[C@@H](Cc1ccc(O)cc1)C(N)=O)[C@@H](C)O)C(C)C)[C@@H](C)O
notes: also called 14E, 17R, 21P, 26P
B5: N^α1-[(4S)-4-carboxy-4-(19-carboxynonadecanoylamino)butanoyl]-[Glu14,Arg17,Pro21,Pro27,Pro31]-h-amylin (peptide)
peptide: {C20 diacid-γGlu}-KCNTATCATQRLAEFLRHSSPNFGAIPSSTPVGSNTY-NH2
modifications: disulfide 2-7
SMILES: CC[C@H](C)[C@H](NC(=O)[C@H](C)NC(=O)CNC(=O)[C@H](Cc1ccccc1)NC(=O)[C@H](CC(N)=O)NC(=O)[C@@H]1CCCN1C(=O)[C@H](CO)NC(=O)[C@H](CO)NC(=O)[C@H](Cc1c[nH]cn1)NC(=O)[C@H](CCCNC(=N)N)NC(=O)[C@H](CC(C)C)NC(=O)[C@H](Cc1ccccc1)NC(=O)[C@H](CCC(=O)O)NC(=O)[C@H](C)NC(=O)[C@H](CC(C)C)NC(=O)[C@H](CCCNC(=N)N)NC(=O)[C@H](CCC(N)=O)NC(=O)[C@@H](NC(=O)[C@H](C)NC(=O)[C@@H]1CSSC[C@H](NC(=O)[C@H](CCCCN)NC(=O)CC[C@H](NC(=O)CCCCCCCCCCCCCCCCCCC(=O)O)C(=O)O)C(=O)N[C@@H](CC(N)=O)C(=O)N[C@@H]([C@@H](C)O)C(=O)N[C@@H](C)C(=O)N[C@@H]([C@@H](C)O)C(=O)N1)[C@@H](C)O)C(=O)N1CCC[C@H]1C(=O)N[C@@H](CO)C(=O)N[C@@H](CO)C(=O)N[C@H](C(=O)N1CCC[C@H]1C(=O)N[C@H](C(=O)NCC(=O)N[C@@H](CO)C(=O)N[C@@H](CC(N)=O)C(=O)N[C@H](C(=O)N[C@@H](Cc1ccc(O)cc1)C(N)=O)[C@@H](C)O)C(C)C)[C@@H](C)O
notes: also called 14E, 17R, 21P, 27P, 31P

The test addresses T1, human amylin receptor. Kind of test: SPA competition binding, displacement of 125I-rat amylin from membranes with human amylin 3(a) receptor (Assay V). As for the experimental part:
The binding assay was performed using scintillation proximity assay (SPA) beads (RPNQ0001) from PerkinElmer and cell membranes from the Amylin 3(a)/CRE-luc cells (as described in Assay (II)) were used. Membranes were prepared in the following way; the cells were rinsed with PBS and incubated with Versene for approximately 5 min before harvesting. The cells were flushed with PBS and the cell-suspension was centrifuged for 5 min at 1000 rpm. Cells were homogenized (ultrathurrax) in a buffer containing 20 mM Na-HEPES and 10 mM EDTA (pH 7.4) and centrifuged at 20.000 rpm for 15 min. The resulting pellet was resuspended, homogenized and centrifuged (20.000 rpm, 15 min) in a buffer containing 20 mM Na-HEPES and 0.1 mM EDTA (pH 7.4, buffer 2). The resulting pellet was resuspended in buffer 2 and protein concentration was measured (BCA protein Assay, Pierce). The homogenate was kept cold during the whole procedure. The membranes were kept at −80° C. until use. The assay was performed in a 384 well Optiplate (PerkinElmer) in a total volume of 40 ul. Membranes were mixed with SPA beads. Final concentration of membranes 35 ng/μL final and SPA beads was 0.05 mg/well. Test-compounds were dissolved in DMSO and further diluted in assay buffer (50 mM Hepes, pH 7.4, 1 mM CaCl2, 5 mM MgCl₂, 0.1% OA and 0.02% Tween20). […] The final mixture was incubated with shaking at 400 rpm for 120 min at 25° C. prior to centrifugation (1500 rpm, 10 min). Samples were analyzed on TopCounter™ (Packard). The IC₅₀ was calculated using (one site binding competition analysis) GraphPad Prism5 as a measure of receptor affinity.
For orientation: In a radioligand displacement assay an active substance lowers the binding of a labelled ligand.
The molecule B1 gave an IC50 of 0.082 nM.

Turning to B2, the IC50 came to 0.554 nM.

Consider B3, for which the IC50 amounted to 0.105 nM.

B4: the IC50 turned out to be 0.674 nM.

Molecule B5 registered an IC50 of 0.204 nM.
